Test results reported in patent publication US20160024487.

Tests used:
[1] = biological target: T1, Lys(Dnp)-ATNATPWPRIVGG-Lys(Abz)
T1 chain: KATNATPWPRIVGGK

[2] = biological target: T2, Lys(Dnp)-ATNATVYPRIVGG-Lys(Abz)
T2 chain: KATNATVYPRIVGGK

[3] = biological target: T3, Lys(Dnp)-ATNATFYPRIVGG-Lys(Abz)
T3 chain: KATNATFYPRIVGGK

[4] = biological target: T4, Lys(Dnp)-ATNATIHPRIVGG-Lys(Abz)
T4 chain: KATNATIHPRIVGGK

[5] = biological target: T5, Lys(Dnp)-ATNATYQPRIVGG-Lys(Abz)
T5 chain: KATNATYQPRIVGGK

[6] = biological target: T6, Lys(Dnp)-ATNATVMPRIVGG-Lys(Abz)
T6 chain: KATNATVMPRIVGGK

[7] = biological target: T7, Lys(Dnp)-ATNATMMPRIVGG-Lys(Abz)
T7 chain: KATNATMMPRIVGGK

[8] = biological target: T8, Lys(Dnp)-ATNATMRPRIVGG-Lys(Abz)
T8 chain: KATNATMRPRIVGGK

[9] = biological target: T9, Lys(Dnp)-ATNATVHPRIVGG-Lys(Abz)
T9 chain: KATNATVHPRIVGGK

[10] = biological target: T10, Lys(Dnp)-ATNATWHPRIVGG-Lys(Abz)
T10 chain: KATNATWHPRIVGGK

[11] = biological target: T11, Lys(Dnp)-ATNATRPPRIVGG-Lys(Abz)
T11 chain: KATNATRPPRIVGGK

[12] = biological target: T12, Lys(Dnp)-ATNATPIPRIVGG-Lys(Abz)
T12 chain: KATNATPIPRIVGGK

[13] = biological target: T13, Lys(Dnp)-ATNATTTPRIVGG-Lys(Abz)
T13 chain: KATNATTTPRIVGGK

[14] = biological target: T14, Lys(Dnp)-ATNATQGPRIVGG-Lys(Abz)
T14 chain: KATNATQGPRIVGGK

[15] = biological target: T15, Lys(Dnp)-ATNATREPRIVGG-Lys(Abz)
T15 chain: KATNATREPRIVGGK

[16] = biological target: T16, Lys(Dnp)-ATNATRNPRIVGG-Lys(Abz)
T16 chain: KATNATRNPRIVGGK

[17] = biological target: T17, Lys(Dnp)-ATNATIEPRIVGG-Lys(Abz)
T17 chain: KATNATIEPRIVGGK

[18] = biological target: T18, Lys(Dnp)-ATNATHLPRIVGG-Lys(Abz)
T18 chain: KATNATHLPRIVGGK

[19] = biological target: T19, Lys(Dnp)-ATNATADPRIVGG-Lys(Abz)
T19 chain: KATNATADPRIVGGK

[20] = biological target: T20, Lys(Dnp)-ATNATAWPRIVGG-Lys(Abz)
T20 chain: KATNATAWPRIVGGK

[21] = biological target: T21, Lys(Dnp)-ATNATWWPRIVGG-Lys(Abz)
T21 chain: KATNATWWPRIVGGK

[22] = biological target: T22, Lys(Dnp)-ATNATDHPRIVGG-Lys(Abz)
T22 chain: KATNATDHPRIVGGK

[23] = biological target: T23, Lys(Dnp)-ATNATMLPRIVGG-Lys(Abz)
T23 chain: KATNATMLPRIVGGK

[24] = biological target: T24, Lys(Dnp)-ATNATPGPRIVGG-Lys(Abz)
T24 chain: KATNATPGPRIVGGK

[25] = biological target: T25, Lys(Dnp)-ATNATKVPRIVGG-Lys(Abz)
T25 chain: KATNATKVPRIVGGK

[26] = biological target: T26, Lys(Dnp)-ATNATRTPRIVGG-Lys(Abz)
T26 chain: KATNATRTPRIVGGK

[27] = biological target: T27, Lys(Dnp)-ATNATDVPRIVGG-Lys(Abz)
T27 chain: KATNATDVPRIVGGK

[28] = biological target: T28, Lys(Dnp)-ATNATDLPRIVGG-Lys(Abz)
T28 chain: KATNATDLPRIVGGK

[29] = biological target: T29, Lys(Dnp)-ATNATRYPRIVGG-Lys(Abz)
T29 chain: KATNATRYPRIVGGK

[30] = biological target: T30, Lys(Dnp)-ATNATDQPRIVGG-Lys(Abz)
T30 chain: KATNATDQPRIVGGK

[31] = biological target: T31, Lys(Dnp)-ATNATYHPRIVGG-Lys(Abz)
T31 chain: KATNATYHPRIVGGK

[32] = biological target: T32, Lys(Dnp)-ATNATHMPRIVGG-Lys(Abz)
T32 chain: KATNATHMPRIVGGK

[33] = biological target: T33, Lys(Dnp)-ATNATMPPRIVGG-Lys(Abz)
T33 chain: KATNATMPPRIVGGK

[34] = biological target: T34, Lys(Dnp)-ATNATRSPRIVGG-Lys(Abz)
T34 chain: KATNATRSPRIVGGK

[35] = biological target: T35, Lys(Dnp)-ATNATYFPRIVGG-Lys(Abz)
T35 chain: KATNATYFPRIVGGK

[36] = biological target: T36, Lys(Dnp)-ATNATRMPRIVGG-Lys(Abz)
T36 chain: KATNATRMPRIVGGK

[37] = biological target: T37, Lys(Dnp)-ATNATHEPRIVGG-Lys(Abz)
T37 chain: KATNATHEPRIVGGK

[38] = biological target: T38, Lys(Dnp)-ATNATANPRIVGG-Lys(Abz)
T38 chain: KATNATANPRIVGGK

[39] = biological target: T39, Lys(Dnp)-ATNATRWPRIVGG-Lys(Abz)
T39 chain: KATNATRWPRIVGGK

[40] = biological target: T40, Lys(Dnp)-ATNATTLPRIVGG-Lys(Abz)
T40 chain: KATNATTLPRIVGGK

[41] = biological target: T41, Lys(Dnp)-ATNATRVPRIVGG-Lys(Abz)
T41 chain: KATNATRVPRIVGGK

B1: Human plasma purified Factor Xa (protein)
chain 1: ANSFLEEMKKGHLERECMEETCSYEEAREVFEDSDKTNEFWNKYKDGDQCETSPCQNQGKCKDGLGEYTCTCLEGFEGKNCELFTRKLCSLDNGDCDQFCHEEQNSVVCSCARGYTLADNGKACIPTGPYPCGKQTLER
chain 2: IVGGQECKDGECPWQALLINEENEGFCGGTILSEFYILTAAHCLYQAKRFKVRVGDRNTEQEEGGEAVHEVEVVIKHNRFTKETYDFDIAVLRLKTPITFRMNVAPACLPERDWAESTLMTQKTGIVSGFGRTHEKGRQSTRLKMLEVPYVDRNSCKLSSSFIITQNMFCAGYDTKQEDACQGDSGGPHVTRFKDTYFVTGIVSWGEGCARKGKYGIYTKVTAFLKWIDRSMKTRGLPKAKSHAPEVITSSPLK
B1 showed an FXa kcat/KM [1] of 1300 M⁻¹ s⁻¹, an FXa kcat/KM [2] of 61 M⁻¹ s⁻¹ and an FXa kcat/KM [3] of 71 M⁻¹ s⁻¹. The FXa kcat/KM [4] was 810 M⁻¹ s⁻¹, the FXa kcat/KM [5] was 60 M⁻¹ s⁻¹ and the FXa kcat/KM [6] was 280 M⁻¹ s⁻¹. For the same protein, the FXa kcat/KM [7] was 1000 M⁻¹ s⁻¹, the FXa kcat/KM [8] was 490 M⁻¹ s⁻¹ and the FXa kcat/KM [9] was 67 M⁻¹ s⁻¹. It also gave an FXa kcat/KM [10] of 42 M⁻¹ s⁻¹ and an FXa kcat/KM [11] of 7 M⁻¹ s⁻¹.

B2: Human plasma purified Factor Xa (Molecular Innovations, Inc) (protein)
chain 1: ANSFLEEMKKGHLERECMEETCSYEEAREVFEDSDKTNEFWNKYKDGDQCETSPCQNQGKCKDGLGEYTCTCLEGFEGKNCELFTRKLCSLDNGDCDQFCHEEQNSVVCSCARGYTLADNGKACIPTGPYPCGKQTLER
chain 2: IVGGQECKDGECPWQALLINEENEGFCGGTILSEFYILTAAHCLYQAKRFKVRVGDRNTEQEEGGEAVHEVEVVIKHNRFTKETYDFDIAVLRLKTPITFRMNVAPACLPERDWAESTLMTQKTGIVSGFGRTHEKGRQSTRLKMLEVPYVDRNSCKLSSSFIITQNMFCAGYDTKQEDACQGDSGGPHVTRFKDTYFVTGIVSWGEGCARKGKYGIYTKVTAFLKWIDRSMKTRGLPKAKSHAPEVITSSPLK
B2 was tested, and the FXa kcat/KM [12] was 590 M⁻¹ s⁻¹, the FXa kcat/KM [1] was 1300 M⁻¹ s⁻¹ and the FXa kcat/KM [13] was 17 M⁻¹ s⁻¹. The FXa kcat/KM [14] was 140 M⁻¹ s⁻¹, the FXa kcat/KM [15] was 2400 M⁻¹ s⁻¹ and the FXa kcat/KM [16] was 1700 M⁻¹ s⁻¹. For the same protein, the FXa kcat/KM [17] was 1300 M⁻¹ s⁻¹, the FXa kcat/KM [18] was 140 M⁻¹ s⁻¹ and the FXa kcat/KM [19] was 56 M⁻¹ s⁻¹. It also gave an FXa kcat/KM [20] of 460 M⁻¹ s⁻¹, an FXa kcat/KM [21] of 70 M⁻¹ s⁻¹ and an FXa kcat/KM [22] of 5 M⁻¹ s⁻¹. For the same protein, the FXa kcat/KM [23] was 530 M⁻¹ s⁻¹, the FXa kcat/KM [24] was 100 M⁻¹ s⁻¹ and the FXa kcat/KM [25] was 50 M⁻¹ s⁻¹. The FXa kcat/KM [26] was 1500 M⁻¹ s⁻¹, the FXa kcat/KM [27] was 15 M⁻¹ s⁻¹ and the FXa kcat/KM [28] was 27 M⁻¹ s⁻¹. It also gave an FXa kcat/KM [29] of 960 M⁻¹ s⁻¹, an FXa kcat/KM [30] of 2.2 M⁻¹ s⁻¹ and an FXa kcat/KM [31] of 43 M⁻¹ s⁻¹. The FXa kcat/KM [32] was 270 M⁻¹ s⁻¹, the FXa kcat/KM [33] was 4.1 M⁻¹ s⁻¹ and the FXa kcat/KM [34] was 2700 M⁻¹ s⁻¹. For the same protein, the FXa kcat/KM [35] was 34 M⁻¹ s⁻¹, the FXa kcat/KM [36] was 4600 M⁻¹ s⁻¹ and the FXa kcat/KM [37] was 96 M⁻¹ s⁻¹. For the same protein, the FXa kcat/KM [38] was 78 M⁻¹ s⁻¹, the FXa kcat/KM [39] was 3000 M⁻¹ s⁻¹ and the FXa kcat/KM [40] was 140 M⁻¹ s⁻¹. It also gave an FXa kcat/KM [41] of 510 M⁻¹ s⁻¹.
